Experiment [1] has as its target T1, HCV NS3 protease (Hepatitis C virus genotype 1b, UniProt P26663).
T1 construct: In the case of HCV NS3 protease the site is NS5A/B
The following applies: mean ± S.D., cited from earlier work.

Experiment [2] addresses T1, HCV NS3 protease. The following applies: cited from earlier work.
The target of a further experiment is SARS 3CL protease (Severe acute respiratory syndrome coronavirus, UniProt P0C6X7).
The next experiment concerns the target HRV 3C protease (Human rhinovirus 16, UniProt Q82122). The format is biochemical, HRV 16.
The subject of another experiment is E. coli lysate. The experiment is classed as biochemical. Conditions: FIG. 5.
[3] abbreviates: Table 7, NS3 + Pep4A, modified decamer peptides vs wild type DEMEECASHL
[4] abbreviates: Table 7, NS3 alone, modified decamer peptides vs wild type DEMEECASHL
The mark [5] stands for this setting: NS3 + Pep4A, P6 and P1′-modified NS4A/NS4B decamer peptides.
Setting [6] is: NS3 alone, P6 and P1′-modified NS4A/NS4B decamer peptides.

Read-outs that look alike come from different tables or passages of the source. Ends that are not written are not given here.

T1 sequence (P26663 1027-1208, other chains not shown): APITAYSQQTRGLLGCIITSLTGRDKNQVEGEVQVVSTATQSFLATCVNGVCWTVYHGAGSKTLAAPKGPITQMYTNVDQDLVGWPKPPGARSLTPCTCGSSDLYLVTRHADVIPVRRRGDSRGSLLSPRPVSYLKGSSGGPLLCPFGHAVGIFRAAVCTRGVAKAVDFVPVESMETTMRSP

Regarding AEMEECASHL, in the experiment with HCV NS3 protease [1] (setting [3]), the Km was 55 ± 11 µM and the kcat was 0.015 ± 0.001 s⁻¹. In the experiment with HCV NS3 protease [1] (setting [4]), the Michaelis-Menten constant (Km) was 125 ± 28 µM and the catalytic constant (kcat) was 0.00167 ± 0.00033 s⁻¹.

Regarding `O=S(=O)(F)Cc1ccccc1` [PMSF], the “effect of protease inhibitor on cleavage of Pep1” value (shortened to “effect of protease inhibitor”) in the experiment on HeLa lysate (Pep1 as substrate) was “relative insensitivity”.

As to DEMEECFSHL, in the experiment with HCV NS3 protease [1] (setting [5]), the Km is 156 ± 54 µM and the kcat was 0.00333 ± 0.00033 s⁻¹.

With BTLEFCSñSY [Pep B5s], the Keat was 23 min⁻¹ at HCV NS3 protease [2] (absence (−) of 150 mM Nacl) and 36 min⁻¹ on HCV NS3 protease [2] (presence (+) of 150 mM Nacl). The Km is 3.5 µM on HCV NS3 protease [2] (absence (−) of 150 mM Nacl) and 27 µM on HCV NS3 protease [2] (presence (+) of 150 mM Nacl).

In the case of DEAEECASHL, in the experiment with HCV NS3 protease [1] (setting [3]), the Km was 124 ± 22 µM and the turnover number (kcat) was 0.0355 ± 0.005 s⁻¹. Further, in the experiment with HCV NS3 protease [1] (setting [4]), the Km is 409 ± 24 µM and the kcat was 0.005 ± 0.00033 s⁻¹.

Consider DEMEECASHL, for which the Km with HCV NS3 protease [1] (setting [5]) was 42.8 ± 4.1 µM; with HCV NS3 protease [1] (setting [6]), 105 ± 20 µM; with HCV NS3 protease [1] (setting [3]), 42.8 ± 4.1 µM; with HCV NS3 protease [1] (setting [4]), 105 ± 20 µM. The catalytic constant (kcat) in the experiment with HCV NS3 protease [1] (setting [5]) is 0.0233 ± 0.0012 s⁻¹; with HCV NS3 protease [1] (setting [6]), 0.00433 ± 0.0005 s⁻¹; with HCV NS3 protease [1] (setting [3]), 0.0233 ± 0.0012 s⁻¹; with HCV NS3 protease [1] (setting [4]), 0.00433 ± 0.0005 s⁻¹.

Consider DEMEECAAHL, for which, in the experiment with HCV NS3 protease [1] (setting [3]), the Michaelis constant (Km) was 144 ± 5.6 µM and the catalytic constant (kcat) was 0.0513 ± 0.0025 s⁻¹. In the experiment with HCV NS3 protease [1] (setting [4]), the Km is 191 ± 11 µM and the catalytic constant (kcat) was 0.0112 ± 0.00067 s⁻¹.

In the case of DEMEECSSHL, the values for the Michaelis constant (Km) with HCV NS3 protease [1] (setting [5]) and with HCV NS3 protease [1] (setting [6]) were 246 ± 54 µM and 273 ± 21 µM, respectively. Moreover, the figures for the kcat with HCV NS3 protease [1] (setting [5]) and in the experiment with HCV NS3 protease [1] (setting [6]) were 0.0277 ± 0.00367 s⁻¹ and 0.00533 ± 0.00017 s⁻¹, respectively.

Turning to KEMEECASHL, the Km in the experiment with HCV NS3 protease [1] (setting [5]) was 449 ± 91 µM; with HCV NS3 protease [1] (setting [6]), 1050 ± 430 µM. Besides, the kcat was 0.0447 ± 0.00033 s⁻¹ in the experiment with HCV NS3 protease [1] (setting [5]) and 0.00433 ± 0.00167 s⁻¹ with HCV NS3 protease [1] (setting [6]).

For `O=C(O)CN(CCOCCOCCN(CC(=O)O)CC(=O)O)CC(=O)O` [EGTA], in the experiment on HeLa lysate (Pep1 as substrate), the “effect of protease inhibitor” value is “partially inhibited”.

For DEMEACASHL, the figures for the Michaelis-Menten constant (Km) with HCV NS3 protease [1] (setting [3]) and with HCV NS3 protease [1] (setting [4]) were 148 ± 44 µM and 171 ± 23 µM, respectively. For the same molecule, the kcat is 0.0432 ± 0.01 s⁻¹ with HCV NS3 protease [1] (setting [3]) and 0.00433 ± 0.00017 s⁻¹ in the experiment with HCV NS3 protease [1] (setting [4]).

Regarding “EQVVRCSñSY (not fully specified (C-terminus); printed as EQVVRCSñSY; also: code ñ has no stated meaning) [Pep B8s, substrate peptide for HCV NS3 protease based on selected cleavage site]”, the Keat was 3 min⁻¹ with HCV NS3 protease [2] (absence (−) of 150 mM Nacl) and 10.5 min⁻¹ with HCV NS3 protease [2] (presence (+) of 150 mM Nacl). Besides, the Km was 7 µM with HCV NS3 protease [2] (absence (−) of 150 mM Nacl) and 21 µM with HCV NS3 protease [2] (presence (+) of 150 mM Nacl).

Consider “ERLVLCSñSY (not fully specified (C-terminus); printed as ERLVLCSñSY; also: code ñ has no stated meaning) [Pep B19s, substrate peptide for HCV NS3 protease based on selected cleavage site]”, for which, in the experiment with HCV NS3 protease [2] (absence (−) of 150 mM Nacl), the Keat was 30 min⁻¹ and the Michaelis constant (Km) was 11 µM. In addition, in the experiment with HCV NS3 protease [2] (presence (+) of 150 mM Nacl), the Keat was 49 min⁻¹ and the Michaelis-Menten constant (Km) was 12 µM.

For the molecule DEMEEAASHL, the kcat result with HCV NS3 protease [1] (setting [3]) and in the experiment with HCV NS3 protease [1] (setting [4]) was “not cleaved” throughout.

Take DEMEECASHL [NS4A/4Bs]: the Keat in the experiment with HCV NS3 protease [2] (absence (−) of 150 mM Nacl) and with HCV NS3 protease [2] (presence (+) of 150 mM Nacl) was 4 min⁻¹ in each case. The Michaelis constant (Km) is 10 µM with HCV NS3 protease [2] (absence (−) of 150 mM Nacl) and 500 µM with HCV NS3 protease [2] (presence (+) of 150 mM Nacl).

As for NEMEECASHL, the values for the Km with HCV NS3 protease [1] (setting [5]) and in the experiment with HCV NS3 protease [1] (setting [6]) were 188 ± 44 µM and 630 ± 62 µM, respectively. Also, the values for the kcat with HCV NS3 protease [1] (setting [5]) and in the experiment with HCV NS3 protease [1] (setting [6]) were 0.0483 ± 0.00767 s⁻¹ and 0.00617 ± 0.00417 s⁻¹, respectively.

As for DEMAECASHL, in the experiment with HCV NS3 protease [1] (setting [3]), the Km was 190 ± 35 µM and the turnover number (kcat) was 0.0468 ± 0.011 s⁻¹. Moreover, in the experiment with HCV NS3 protease [1] (setting [4]), the Michaelis constant (Km) is 790 ± 205 µM and the kcat was 0.0055 ± 0.001 s⁻¹.

As for DAMEECASHL, the Michaelis-Menten constant (Km) with HCV NS3 protease [1] (setting [3]) was 143 ± 27 µM; with HCV NS3 protease [1] (setting [4]), 569 ± 150 µM. Besides, the figures for the turnover number (kcat) in the experiment with HCV NS3 protease [1] (setting [3]) and with HCV NS3 protease [1] (setting [4]) were 0.0455 ± 0.014 s⁻¹ and 0.0143 ± 0.00767 s⁻¹, respectively.

EDVVaCSñSY [B14s(NS5A/B)]: the Keat at HCV NS3 protease [2] (absence (−) of 150 mM Nacl) was 34 min⁻¹; on HCV NS3 protease [2] (presence (+) of 150 mM Nacl) it was 47 min⁻¹. Also, the Michaelis-Menten constant (Km) at HCV NS3 protease [2] (absence (−) of 150 mM Nacl) is 4 µM; on HCV NS3 protease [2] (presence (+) of 150 mM Nacl), 10 µM.

Turning to “ENSVPCSñSY (not fully specified (C-terminus); printed as ENSVPCSñSY; also: code ñ has no stated meaning) [Pep B28s, substrate peptide for HCV NS3 protease based on selected cleavage site]”, in the experiment with HCV NS3 protease [2] (absence (−) of 150 mM Nacl), the Keat is 4 min⁻¹ and the Michaelis constant (Km) was 15 µM. Further, in the experiment with HCV NS3 protease [2] (presence (+) of 150 mM Nacl), the Keat was 14.5 min⁻¹ and the Km is 56 µM.

As for `O=C(O)CN(CCN(CC(=O)O)CC(=O)O)CC(=O)O` [EDTA], in the experiment with HeLa lysate, the “effect of protease inhibitor” value was “partially inhibited”.

For the molecule DEMEECASAL, in the experiment with HCV NS3 protease [1] (setting [3]), the Michaelis constant (Km) was 130 ± 15 µM and the kcat is 0.0602 ± 0.016 s⁻¹. In addition, in the experiment with HCV NS3 protease [1] (setting [4]), the Michaelis constant (Km) was 231 ± 39 µM and the kcat is 0.0142 ± 0.00267 s⁻¹.

“Pep1: designed fluorescent (EDANS/DABCYL) 3C protease substrate based on multiple HRV 3C cleavage sites and bioinformatics, Table 14 (LEALFQGPDSQ; not fully specified)”: the “cleavage reaction with SARS 3CL lysate” value in the experiment with SARS 3CL protease is recorded as “absence of any detectable cleavage reaction”. Further, in the experiment with HRV 3C protease, the “duration of linear kinetics” value is “at least 3 minutes”, the “effect of nasal wash on substrate cleavage by recombinant HRV 3C” value was “absence of effect”, the “lower limit of protease detection” value lay within 0.5 to 1.0 nM and the “specificity of substrate for cleavage with HRV 3C protease” value is given as “absolute specificity”. Moreover, in the experiment with HRV 3C protease, the “substrate cleavage compared to the native cleavage site (Ori 2)” value is listed as “superior substrate cleavage” and the “substrate exhibiting the most rapid kinetics out of Pep 1-Pep 9” value was “most rapid kinetics”. In addition, the “cleavage reaction with E. coli lysate” value in the experiment with E. coli lysate is on record as “absence of any detectable cleavage reaction”.

Take DEMEECASHA: in the experiment with HCV NS3 protease [1] (setting [3]), the Km is 219 ± 10 µM and the kcat was 0.05 ± 0.0157 s⁻¹. In the experiment with HCV NS3 protease [1] (setting [4]), the Km was 260 ± 37 µM and the turnover number (kcat) is 0.00967 ± 0.002 s⁻¹.

As to “ERVVLCSñSY (not fully specified (C-terminus); printed as ERVVLCSñSY; also: code ñ has no stated meaning) [Pep B15s, substrate peptide for HCV NS3 protease based on selected cleavage site]”, the Keat in the experiment with HCV NS3 protease [2] (absence (−) of 150 mM Nacl) is 30 min⁻¹; with HCV NS3 protease [2] (presence (+) of 150 mM Nacl), 44.5 min⁻¹. For the same molecule, the Michaelis constant (Km) with HCV NS3 protease [2] (absence (−) of 150 mM Nacl) is 30 µM; in the experiment with HCV NS3 protease [2] (presence (+) of 150 mM Nacl), 13 µM.

With Aprotinin, in the experiment on HeLa lysate (Pep1 as substrate), the “effect of protease inhibitor” value is “relative insensitivity”.

EEMEECASHL: in the experiment with HCV NS3 protease [1] (setting [5]), the Michaelis constant (Km) is 166 ± 15 µM and the kcat is 0.0482 ± 0.00333 s⁻¹. Also, in the experiment with HCV NS3 protease [1] (setting [6]), the Km was 254 ± 44 µM and the kcat is 0.0107 ± 0.00067 s⁻¹.

What is called Km is the substrate concentration at which the rate is half of its maximum. What is called kcat is the number of substrate molecules converted per active site and unit of time at saturation.

(Values after patent publication US20090281042A1 (priority 2005, published 2009).)
